B1: IKZF1 (parent)
chain: YHSQDRYEFSSHITRGEHRFHMS

Variants of: B1
Assay: protein stability index of a GFP-peptide fusion (GPS, HEK-293T) (PSI 1-6); higher = more stable
Settings: c terminus: native
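Also: lentivirally expressed fusions sorted by FACS into six bins by GFP to DsRed ratio, PSI derived from sequencing read proportions per bin multiplied by bin number.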

Protein stability index, by site and new letter:
R15: I 3.49, P 1.42, F 2.34, T 2.9, E 1.81, M 1.47, V 1.82, K 1.8, D 2, A 2.46, S 1.55, W 1.82, C 2.69, L 2.12, G 1.87, Q 2.22, H 1.73, N 1.99, Y 2.29
I13: V 1.78, F 1.81, E 1.83, N 2.05, K 1.82, T 1.97, M 2.04, S 2.03, Y 1.49, R 1.49, H 2.36, A 1.85, Q 1.62, P 1.78, G 2.7, W 1.71, L 2.52, D 1.52, C 2.08
H2: G 3.11, C 2.04, E 3.98, L 2.02, N 3.72, P 3.48, T 3.16, W 2.41, F 2.51, Y 2.85, M 2.48, R 3.37, S 3.36, Q 2.4, K 2.01, V 2.58, D 3.76, A 2.5, I 1.94
H18: E 1.97, G 1.6, P 1.81, A 1.45, F 2.66, D 1.12, M 2.75, N 1.45, I 1.65, C 2.04, L 1.99, K 2.22
S11: G 2, C 1.68, D 2.01, Y 1.67, H 1.61, M 1.48, I 1.65, Q 2.07, P 3.03, E 2.15, L 3.83, V 1.6, N 1.92, F 2.9, R 2.33, K 1.95, W 2.27, A 2.36, T 2.02
Y1: A 3.73, H 3.76, R 4.05, D 4.05, N 4.05, G 3.97, E 4, K 2.12, L 3.37, S 4.05, V 3.57, M 3.5, T 3.5, W 2.94, P 3.84, I 3.35, C 3.03, Q 3.99, F 1.73
S10: Y 2, Q 2.08, A 1.4, P 2.08, R 1.9, I 1.92, E 1.74, N 1.72, H 1.84, F 2.1, W 3.17, V 1.95, T 1.62, K 1.27, G 1.92, M 1.6, L 1.66, D 1.74, C 1.56
E17: T 1.4, S 1.64, D 1.63, A 2.75, F 1.62, L 2.11, M 1.71, G 1.56, V 1.68, W 2.07, N 2.92, H 1.99, P 2.04, Q 2.48, R 1.94, C 3.05, Y 1.7, K 2.41, I 2.84
G16: V 1.35, N 2.04, F 1.9, P 2.01, A 1.76, C 2.74, M 2.85, L 1.53, D 2.52, W 1.51, K 2.27, I 1.77, T 2.4, R 2.38, Y 4.64, Q 1.58, S 1.5, E 3.6, H 1.56
S3: I 2.73, T 2.13, K 2.33, C 1.59, R 2.47, E 2.56, A 2.66, P 2.5, Q 2.54, L 2.39, Y 1.63, G 2, H 2.14, D 2.76, N 1.61, F 1.76, V 2.15, W 2.61, M 1.95
H12: Y 1.98, A 1.71, S 3.03, N 2.67, Q 2.83, F 2.04, T 2.15, R 2.79, P 2.27, V 2.49, E 2.47, W 2.85, L 2.06, K 2.31, M 2.74, G 3.61, C 2.66, I 1.92, D 1.88
Y7: E 2.18, V 2, G 2.44, Q 2.04, L 2.33, S 2.2, M 1.95, C 1.91, W 2.46, T 1.85, K 1.51, H 1.49, D 2.26, P 1.78, A 1.89, F 2.78, R 2.08, I 2.27, N 1.72
R6: Q 1.9, M 2.65, N 2.44, H 1.8, T 1.8, C 2.84, A 2.22, Y 2.24, G 2.22, D 2.49, P 2.23, E 2.29, I 2.25, F 3.44, S 1.87, W 2.83, V 2.07, L 2.98, K 2.64
D5: K 3.72, F 2.55, Y 2.05, M 3.27, R 1.61, I 2.41, N 1.84, S 1.79, V 2.31, H 2.74, A 1.5, C 3.34, T 2.18, L 2.17, E 3, P 2.04, W 3.3, G 2.85
F9: P 1.73, M 2.44, H 2.04, G 1.97, I 2.03, V 2.65, Y 1.95, T 1.49, A 2.02, L 1.96, K 2.05, R 1.67, D 1.98, E 1.97, S 3.12, W 3.1, Q 1.17, C 2.54, N 1.8
T14: M 1.84, V 2.04, W 2.7, L 2.23, Y 1.37, A 2.38, F 1.47, N 2.24, Q 1.34, D 1.83, P 1.52, S 1.85, I 2.15, K 1.49, G 1.54, R 2.07, E 1.68, C 1.58, H 1.99
E8: R 1.8, N 3.99, H 4.13, P 3.38, A 2.79, D 2.45, T 3.44, V 1.98, F 3.7, K 3.34, S 3.3, Q 2.17, G 1.72, L 4.01, W 2.44, M 2.11, Y 3.85, C 2.5, I 2.78
Q4: M 1.77, D 2.75, R 1.94, T 1.63, I 1.57, K 2.21, G 2.3, V 2.23, H 2.21, A 2.13, C 1.44, L 2.08, S 2.42, F 2.33, W 2.22, E 3.35, Y 1.77, P 1.94, N 1.89

From the supplement of paper PMC10567573
